Results as given in PMC5472792, “Bub1 positions Mad1 close to KNL1 MELT repeats to promote checkpoint signalling” (Nature Communications, 2017).
Positions count from the first letter of the chain named.

Columns and labels:
Bub1 and KNL1 = assay: BioID proximity biotinylation; type: cell-based, human
Source text: We speculated that CD1 might engage in a protein-protein interaction that is critical for checkpoint signalling. Mad1 appeared to be the only core component of the checkpoint for which we could see an effect of removing the CD1 on its kinetochore levels (Supplementary Fig. 1 for Cdc20 and ref. [33] for BubR1, Mad1). However, an interaction between human Mad1 and Bub1 cannot be detected in immunoprecipitation experiments. To determine whether there was an interaction between human Mad1 and Bub1, we first developed an assay for looking at transient and/or weak Mad1 interactions in vivo. […] The purification and detection of biotinylated proteins were highly robust and we detected multiple Mad1 peptides upon addition of biotin, as expected (Supplementary Fig. 5C). Using a quantitative mass spectrometry SILAC approach allowed us to compare the proximity of proteins to the N terminus versus the C terminus of Mad1. […]
Figure 3 Bub1 directly interacts with Mad1. (a) Nocodazole arrested HeLa cells stably expressing the indicated Mad1-BirA or BirA-Mad1 fusion protein at near endogenous levels were analyzed 16 h after induction with doxycyclin with or without exposure to 25 μM biotin. […] Bound Bub1 protein was detected by blotting for FLAG. (e) Quantification of three independent experiments as in d with WT binding set to 1. […]

GST-Bub1 425–500 = assay: In vitro phosphorylation of GST-Bub1, mass spectrometry; type: biochemical, human
Method: To identify mitotic kinases able to phosphorylate Bub1 on Ser459 and Thr461 we performed in vitro phosphorylation assays with candidate kinases.
A similar set-up was used for analysing the phosphorylated GST-Bub1 except that an EASY-nLC 1200 UHPLC system connected to an Orbitrap Q-Exactive HF was used and the acetonitrile gradient was run for 77 min. The samples were analysed using a ‘fast' acquisition mode with a normalized collision energy (NCE) of 25 and raw data analysed with MaxQuant software suit version 1.5.7.4.
GST- Bub1 (425–500) was expressed in BL21(DE3) cells at 18 °C overnight with 0.5 mM IPTG in the medium. The bacteria were lysed in 50 mM Tris-HCl pH 7.4, 300 mM NaCl, 10% glycerol, 5 mM β-mercaptoethanol, 1 mM PMSF, plus Complete-EDTA free protease inhibitors (Roche) using a high pressure homogenizer. Lysates were cleared by centrifugation and incubated with pre-equilibrated Glutathione-Fast Flow (GE Healthcare) beads for 2 h at 4 °C and eluted with GST-elution buffer at room temperature (50 mM Tris pH 8.8, 300 mM NaCl, 10% glycerol, 5 mM β-mercaptoethanol, 20 mM reduced glutathione). Elutions were pooled and run on Superdex 200 column (GE Healthcare) in PBS with 8.7% glycerol and 5 mM mercaptoethanol. Peak fractions were aliquoted and stored at −80 °C.
500 μM ATP and 125 nM Calyculin A (Cell Signaling) were added and the reactions were incubated at 30 °C for 1 h. Controls were incubated in kinase buffer and Calyculin A only. 6 μg of phosphorylated protein was resolved on NuPAGE Novex 4–12% Bis-Tris protein gels, which were fixed and stained by Colloidal Blue Staining (Thermo Scientific). The band corresponding to GST-Bub1 was cut out and analysed by mass spectrometry.

[1] = GST-Bub1 425-500, 30 °C for 1 h, 500 μM ATP, LC-MS, kinase-free control 0

B1: Mad1-BirA: promiscuous biotin ligase BirA fused to the C terminus of Mad1 (protein)
chain: MEDLGENTMVLSTLRSLNNFISQRVEGGSGLDISTSAPGSLQMQYQQSMQLEERAEQIRSKSHLIQVEREKMQMELSHKRARVELERAASTSARNYEREVDRNQELLTRIRQLQEREAGAEEKMQEQLERNRQCQQNLDAASKRLREKEDSLAQAGETINALKGRISELQWSVMDQEMRVKRLESEKQELQEQLDLQHKKCQEANQKIQELQASQEARADHEQQIKDLEQKLSLQEQDAAIVKNMKSELVRLPRLERELKQLREESAHLREMRETNGLLQEELEGLQRKLGRQEKMQETLVGLELENERLLAKLQSWERLDQTMGLSIRTPEDLSRFVVELQQRELALKDKNSAVTSSARGLEKARQQLQEELRQVSGQLLEERKKRETHEALARRLQKRVLLLTKERDGMRAILGSYDSELTPAEYSPQLTRRMREAEDMVQKVHSHSAEMEAQLSQALEELGGQKQRADMLEMELKMLKSQSSSAEQSFLFSREEADTLRLKVEELEGERSRLEEEKRMLEAQLERRALQGDYDQSRTKVLHMSLNPTSVARQRLREDHSQLQAECERLRGLLRAMERGGTVPADLEAAAASLPSSKEVAELKKQVESAELKNQRLKEVFQTKIQEFRKACYTLTGYQIDITTENQYRLTSLYAEHPGDCLIFKATSPSGSKMQLLETEFSHTVGELIEVHLRRQDSIPAFLSSLTLELFSRQTVA
modifications: left off: BirA, C-terminal, kept
- biotinylation of Bub1, BubR1 and Cdc20 (proximity), Mad1-BirA vs BirA-Mad1 (Bub1 and KNL1; SILAC mass spectrometry, single experiment, and western blot): more efficiently labelled with biotin

B2: MAD1 EFR/AAA: Mad1-BirA with Glu710, Phe712 and Arg714 mutated to Ala (protein)
chain: B1 chain with E710A, F712A, R714A
modifications: left off: BirA, C-terminal, kept
notes: Mad1-BirA with Glu710, Phe712 and Arg714 mutated to Ala
- biotinylation of Bub1 and KNL1 (Bub1 and KNL1; nocodazole arrested HeLa, 25 μM biotin, western blot, representative of two independent experiments): did not affect the biotinylation of Bub1 and KNL1

B3: Mps1: purified kinase (Life Technologies) (protein, UniProt P33981 1-857, looked up)
Dual specificity protein …: MESEDLSGRELTIDSIMNKVRDIKNKFKNEDLTDELSLNKISADTTDNSGTVNQIMMMANNPEDWLSLLLKLEKNSVPLSDALLNKLIGRYSQAIEALPPDKYGQNESFARIQVRFAELKAIQEPDDARDYFQMARANCKKFAFVHISFAQFELSQGNVKKSKQLLQKAVERGAVPLEMLEIALRNLNLQKKQLLSEEEKKNLSASTVLTAQESFSGSLGHLQNRNNSCDSRGQTTKARFLYGENMPPQDAEIGYRNSLRQTNKTKQSCPFGRVPVNLLNSPDCDVKTDDSVVPCFMKRQTSRSECRDLVVPGSKPSGNDSCELRNLKSVQNSHFKEPLVSDEKSSELIITDSITLKNKTESSLLAKLEETKEYQEPEVPESNQKQWQSKRKSECINQNPAASSNHWQIPELARKVNTEQKHTTFEQPVFSVSKQSPPISTSKWFDPKSICKTPSSNTLDDYMSCFRTPVVKNDFPPACQLSTPYGQPACFQQQQHQILATPLQNLQVLASSSANECISVKGRIYSILKQIGSGGSSKVFQVLNEKKQIYAIKYVNLEEADNQTLDSYRNEIAYLNKLQQHSDKIIRLYDYEITDQYIYMVMECGNIDLNSWLKKKKSIDPWERKSYWKNMLEAVHTIHQHGIVHSDLKPANFLIVDGMLKLIDFGIANQMQPDTTSVVKDSQVGTVNYMPPEAIKDMSSSRENGKSKSKISPKSDVWSLGCILYYMTYGKTPFQQIINQISKLHAIIDPNHEIEFPDIPEKDLQDVLKCCLKRDPKQRISIPELLAHPYVQIQTHPVNQMAKGTTEEMKYVLGQLVGLNSPNSILKAAKTLYEHYSGGESHNSSSSKTFEKKRGKK
- intensity of phospho-peptide 456-VQPS(Phos)PTVHTK (pS459) (GST-Bub1 425–500; [1]): 0
- intensity of phospho-peptide 456-VQPSPT(Phos)VHTK (pT461) (GST-Bub1 425–500; [1]): 7,84 E+08
- phosphorylation of GST-Bub1 425–500 (in words) (GST-Bub1 425–500; Ser459 and Thr461, mass spectrometry): phosphorylation of Thr461 but no phosphorylation on Ser459
